From the RNAGym collection of RNA variant scans (doi:10.7554/elife.80360)

B1: Hairpin Ribozyme (parent)
chain: GUCCUCUUUCACGUGCGCGUGAAAGAGAGAAGUGAACCAGAGAAACACACGUUGUGGUAUAUUACCUGGUA

Variants of: B1
Assay: self-cleavage, relative activity (ratio to wild type); higher = more cleavage; co-transcriptional
In the case of GUCCUCUUUUACGUGCGCGUGAAAGAGAGAAGUGAACCAGAGAAACACACAUUGUGGUAUAUUACCUGGUA [C10U G51A], the self-cleavage is reported as 0.881.
In the case of GUCCUCUUUUACGUGCGCGUGAAAGAGAGAAGUGAACCAGAGAAACACACUUUGUGGUAUAUUACCUGGUA [C10U G51U], the self-cleavage is reported as 0.888.
In the case of GUCCUCUUUUACGUGCGCGUGAAAGAGAGAAGUGAACCAGAGAAACACACGUUGUGGUAUAUUACCUAGUA [C10U G68A], the self-cleavage is reported as 0.217.
In the case of GUCCUCUUUUACGUGCGCGUGAAAGAGAGAAGUGAACCAGAGAAACACACGUUGUGGUAUAUUACCUGCUA [C10U G69C], the self-cleavage is reported as 0.235.
GUCCUCUUUUACGCGCGCGUGAAAGAGAGAAGUGAACCAGAGAAACACACGUUGUGGUAUAUUACCUGGUA [C10U U14C] showed a self-cleavage of 0.671.
With GUCCUCUUUUACGGGCGCGUGAAAGAGAGAAGUGAACCAGAGAAACACACGUUGUGGUAUAUUACCUGGUA [C10U U14G] the self-cleavage was 0.698.
GUCCUCUUUUACGUGCGCGAGAAAGAGAGAAGUGAACCAGAGAAACACACGUUGUGGUAUAUUACCUGGUA [C10U U20A] showed a self-cleavage of 0.774.
For GUCCUCUUUUACGUGCGCGUGAAAGAGAGAAGAGAACCAGAGAAACACACGUUGUGGUAUAUUACCUGGUA [C10U U33A], the self-cleavage was 0.169.
GUCCUCUUUUACGUGCGCGUGAAAGAGAGAAGUGAACCAGAGAAACACACGUUGUGGUAGAUUACCUGGUA [C10U U60G] showed a self-cleavage of 0.435.
Work on GUCCUCUUUUACGUGCGCGUGAAAGAGAGAAGUGAACCAGAGAAACACACGUUGUGGUAUACUACCUGGUA [C10U U62C] yielded a self-cleavage of 0.281.
GUCCUCUUUUACGUGCGCGUGAAAGAGAGAAGUGAACCAGAGAAACACACGUUGUGGUAUAUAACCUGGUA [C10U U63A] gave a self-cleavage of 0.25.
Variant GUCCUCUUUUACGUGCGCGUGAAAGAGAGAAGUGAACCAGAGAAACACACGUUGUGGUAUAUGACCUGGUA [C10U U63G] has a self-cleavage of 0.263.
For GUCCUCUUUUACGUGCGCGUGAAAGAGAGAAGUGAACCAGAGAAACACACGUUGUGGUAUAUUACCAGGUA [C10U U67A], the self-cleavage was 0.137.
Work on GUCCUCUUUUACGUGCGCGUGAAAGAGAGAAGUGAACCAGAGAAACACACGUUGUGGUAUAUUACCGGGUA [C10U U67G] yielded a self-cleavage of 0.311.
GUCCUCUUUUACGUGCGCGUGAAAGAGAGAAGUGAACCAGAGAAACACACGUUGUGGUAUAUUACCUGGGA [C10U U70G] gave a self-cleavage of 0.698.
GUCCUCUUUCCCGUGCGCGUGAAAGAGAGAAGUGAACCAGAGAAACACACGUUGUGGUAUAUUACCUGGUA [A11C] showed a self-cleavage of 0.849.
With GUCCUCUUUCCCGUGCGCGUGGAAGAGAGAAGUGAACCAGAGAAACACACGUUGUGGUAUAUUACCUGGUA [A11C A22G] the self-cleavage was 0.966.
With GUCCUCUUUCCCGUGCGCGUGAACGAGAGAAGUGAACCAGAGAAACACACGUUGUGGUAUAUUACCUGGUA [A11C A24C] the self-cleavage was 0.709.
GUCCUCUUUCCCGUGCGCGUGAAUGAGAGAAGUGAACCAGAGAAACACACGUUGUGGUAUAUUACCUGGUA [A11C A24U] gave a self-cleavage of 0.615.
In the case of GUCCUCUUUCCCGUGCGCGUGAAAGCGAGAAGUGAACCAGAGAAACACACGUUGUGGUAUAUUACCUGGUA [A11C A26C], the self-cleavage is reported as 0.41.
With GUCCUCUUUCCCGUGCGCGUGAAAGUGAGAAGUGAACCAGAGAAACACACGUUGUGGUAUAUUACCUGGUA [A11C A26U] the self-cleavage was 0.482.
Variant GUCCUCUUUCCCGUGCGCGUGAAAGAGUGAAGUGAACCAGAGAAACACACGUUGUGGUAUAUUACCUGGUA [A11C A28U] has a self-cleavage of 0.603.
Work on GUCCUCUUUCCCGUGCGCGUGAAAGAGAGAAGUGAGCCAGAGAAACACACGUUGUGGUAUAUUACCUGGUA [A11C A36G] yielded a self-cleavage of 1.07.
With GUCCUCUUUCCCGUGCGCGUGAAAGAGAGAAGUGAUCCAGAGAAACACACGUUGUGGUAUAUUACCUGGUA [A11C A36U] the self-cleavage was 0.491.
GUCCUCUUUCCCGUGCGCGUGAAAGAGAGAAGUGAACCCGAGAAACACACGUUGUGGUAUAUUACCUGGUA [A11C A39C] gave a self-cleavage of 0.514.
GUCCUCUUUCCCGUGCGCGUGAAAGAGAGAAGUGAACCGGAGAAACACACGUUGUGGUAUAUUACCUGGUA [A11C A39G] showed a self-cleavage of 0.275.
GUCCUCUUUCCCGUGCGCGUGAAAGAGAGAAGUGAACCAGCGAAACACACGUUGUGGUAUAUUACCUGGUA [A11C A41C] gave a self-cleavage of 1.25.
In the case of GUCCUCUUUCCCGUGCGCGUGAAAGAGAGAAGUGAACCAGUGAAACACACGUUGUGGUAUAUUACCUGGUA [A11C A41U], the self-cleavage is reported as 1.29.
For GUCCUCUUUCCCGUGCGCGUGAAAGAGAGAAGUGAACCAGAGUAACACACGUUGUGGUAUAUUACCUGGUA [A11C A43U], the self-cleavage was 0.163.
GUCCUCUUUCCCGUGCGCGUGAAAGAGAGAAGUGAACCAGAGAACCACACGUUGUGGUAUAUUACCUGGUA [A11C A45C] showed a self-cleavage of 0.0923.
GUCCUCUUUCCCGUGCGCGUGAAAGAGAGAAGUGAACCAGAGAAUCACACGUUGUGGUAUAUUACCUGGUA [A11C A45U] showed a self-cleavage of 0.128.
GUCCUCUUUCCCGUGCGCGUGAAAGAGAGAAGUGAACCAGAGAAACACGCGUUGUGGUAUAUUACCUGGUA [A11C A49G] gave a self-cleavage of 0.629.
GUCCUCUUUCCCGUGCGCGUGAAAGAGAGAAGUGAACCAGAGAAACACUCGUUGUGGUAUAUUACCUGGUA [A11C A49U] gave a self-cleavage of 0.197.
With GUCCUCUUUCCCGUGCGCGUGAAAGAGAGAAGUGAACCAGAGAAACACACGUUGUGGUAUGUUACCUGGUA [A11C A61G] the self-cleavage was 0.0356.
In the case of GUCCUCUUUCCCGUGCGCGUGAAAGAGAGAAGUGAACCAGAGAAACACACGUUGUGGUAUUUUACCUGGUA [A11C A61U], the self-cleavage is reported as 0.118.
GUCCUCUUUCCCGUGCGCGUGAAAGAGAGAAGUGAACCAGAGAAACACACGUUGUGGUAUAUUCCCUGGUA [A11C A64C] gave a self-cleavage of 0.0846.
GUCCUCUUUCCCGUGCGCGUGAAAGAGAGAAGUGAACCAGAGAAACACACGUUGUGGUAUAUUGCCUGGUA [A11C A64G] showed a self-cleavage of 0.462.
In the case of GUCCUCUUUCCCGUGUGCGUGAAAGAGAGAAGUGAACCAGAGAAACACACGUUGUGGUAUAUUACCUGGUA [A11C C16U], the self-cleavage is reported as 0.811.
